Residue numbers refer to the chain shown, from its start.
B1: UGT76G1var55: UGT76G1 variant, mutations I295M_Q342E_V366I_N409R (protein, UniProt Q6VAB4 1-458, looked up, variant I295M Q342E V366I N409R)
UDP-glycosyltransferase 76G1: MENKTETTVRRRRRIILFPVPFQGHINPILQLANVLYSKGFSITIFHTNFNKPKTSNYPHFTFRFILDNDPQDERISNLPTHGPLAGMRIPIINEHGADELRRELELLMLASEEDEEVSCLITDALWYFAQSVADSLNLRRLVLMTSSLFNFHAHVSLPQFDELGYLDPDDKTRLEEQASGFPMLKVKDIKSAYSNWQILKEILGKMIKQTKASSGVIWNSFKELEESELETVIREIPAPSFLIPLPKHLTASSSSLLDHDRTVFQWLDQQPPSSVLYVSFGSTSEVDEKDFLEMARGLVDSKQSFLWVVRPGFVKGSTWVEPLPDGFLGERGRIVKWVPQEEVLAHGAIGAFWTHSGWNSTLESICEGVPMIFSDFGLDQPLNARYMSDVLKVGVYLENGWERGEIARAIRRVMVDEEGEYIRQNARVLKQKADVSLMKGGSSYESLESLVSYISSL
B2: UGT76G1var61: UGT76G1 variant, mutations I43V_F265I_Q266S_L379A (protein, UniProt Q6VAB4 1-458, looked up, variant I43V F265I Q266S L379A)
UDP-glycosyltransferase 76G1: B1 UDP-glycosyltransferase 76G1 with I43V, F265I, Q266S, M295I, E342Q, I366V, L379A, R409N
B3: UGT76G1var76: UGT76G1 variant, mutations F22Y_A239I_L246F_I295M_R334K (protein, UniProt Q6VAB4 1-458, looked up, variant F22Y A239I L246F I295M R334K)
UDP-glycosyltransferase 76G1: B1 UDP-glycosyltransferase 76G1 with F22Y, A239I, L246F, R334K, E342Q, I366V, R409N
B4: UGT76G1var75: UGT76G1 variant, mutations F41L_A239I_Q266S_S375M_P382M (protein, UniProt Q6VAB4 1-458, looked up, variant F41L A239I Q266S S375M P382M)
UDP-glycosyltransferase 76G1: B1 UDP-glycosyltransferase 76G1 with F41L, A239I, Q266S, M295I, E342Q, I366V, S375M, P382M, R409N
B5: UGT76G1var70: UGT76G1 variant, mutations E224A_I295T_V300A_G348P (protein, UniProt Q6VAB4 1-458, looked up, variant E224A I295T V300A G348P)
UDP-glycosyltransferase 76G1: B1 UDP-glycosyltransferase 76G1 with E224A, M295T, V300A, E342Q, G348P, I366V, R409N
B6: UGT76G1var4: UGT76G1 variant, mutations E224D_E231A_F265I (protein, UniProt Q6VAB4 1-458, looked up, variant E224D E231A F265I)
UDP-glycosyltransferase 76G1: B1 UDP-glycosyltransferase 76G1 with E224D, E231A, F265I, M295I, E342Q, I366V, R409N
B7: UGT76G1var67: UGT76G1 variant, mutations E224D_F314S_S375R_Y397E (protein, UniProt Q6VAB4 1-458, looked up, variant E224D F314S S375R Y397E)
UDP-glycosyltransferase 76G1: B1 UDP-glycosyltransferase 76G1 with E224D, M295I, F314S, E342Q, I366V, S375R, Y397E, R409N
B8: UGT76G1var56: UGT76G1 variant, mutations L246F_A352G_S357N_Q432E (protein, UniProt Q6VAB4 1-458, looked up, variant L246F A352G S357N Q432E)
UDP-glycosyltransferase 76G1: B1 UDP-glycosyltransferase 76G1 with L246F, M295I, E342Q, A352G, S357N, I366V, R409N, Q432E
B9: UGT76G1var57: UGT76G1 variant, mutations S241I_T263S_L379G_A385T (protein, UniProt Q6VAB4 1-458, looked up, variant S241I T263S L379G A385T)
UDP-glycosyltransferase 76G1: B1 UDP-glycosyltransferase 76G1 with S241I, T263S, M295I, E342Q, I366V, L379G, A385T, R409N
B10: UGT76G1var59: UGT76G1 variant, mutations I335V_K393G_V394I_Y397Q (protein, UniProt Q6VAB4 1-458, looked up, variant I335V K393G V394I Y397Q)
UDP-glycosyltransferase 76G1: B1 UDP-glycosyltransferase 76G1 with M295I, I335V, E342Q, I366V, K393G, V394I, Y397Q, R409N
B11: UGT76G1var62: UGT76G1 variant, mutations L243P_P272A_V394I_V396F (protein, UniProt Q6VAB4 1-458, looked up, variant L243P P272A V394I V396F)
UDP-glycosyltransferase 76G1: B1 UDP-glycosyltransferase 76G1 with L243P, P272A, M295I, E342Q, I366V, V394I, V396F, R409N
B12: UGT76G1var66: UGT76G1 variant (round 1), mutations F265L_V310I_V366I_A385T (protein, UniProt Q6VAB4 1-458, looked up, variant F265L V310I V366I A385T)
UDP-glycosyltransferase 76G1: B1 UDP-glycosyltransferase 76G1 with F265L, M295I, V310I, E342Q, A385T, R409N
B13: UGT76G1var58: UGT76G1 variant, mutations S357C_S375M_N409R_Q425E (protein, UniProt Q6VAB4 1-458, looked up, variant S357C S375M N409R Q425E)
UDP-glycosyltransferase 76G1: B1 UDP-glycosyltransferase 76G1 with M295I, E342Q, S357C, I366V, S375M, Q425E
B14: UGT76G1var60: UGT76G1 variant, mutations E231A_L243A_V279I_S357N (protein, UniProt Q6VAB4 1-458, looked up, variant E231A L243A V279I S357N)
UDP-glycosyltransferase 76G1: B1 UDP-glycosyltransferase 76G1 with E231A, L243A, V279I, M295I, E342Q, S357N, I366V, R409N
B15: UGT76G1var65: UGT76G1 variant, mutations A33G_A239V_P382M_Q425E (protein, UniProt Q6VAB4 1-458, looked up, variant A33G A239V P382M Q425E)
UDP-glycosyltransferase 76G1: B1 UDP-glycosyltransferase 76G1 with A33G, A239V, M295I, E342Q, I366V, P382M, R409N, Q425E
B16: UGT76G1var68: UGT76G1 variant, mutations Q342K_G348P_I373L_Y397E (protein, UniProt Q6VAB4 1-458, looked up, variant Q342K G348P I373L Y397E)
UDP-glycosyltransferase 76G1: B1 UDP-glycosyltransferase 76G1 with M295I, E342K, G348P, I366V, I373L, Y397E, R409N
B17: UGT76G1var73: UGT76G1 variant, mutations F22Y_D301N_R334H_Q342E_V396F (protein, UniProt Q6VAB4 1-458, looked up, variant F22Y D301N R334H Q342E V396F)
UDP-glycosyltransferase 76G1: B1 UDP-glycosyltransferase 76G1 with F22Y, M295I, D301N, R334H, I366V, V396F, R409N
B18: UGT76G1var72: UGT76G1 variant, mutations T284L_D301N_K303G_S375R (protein, UniProt Q6VAB4 1-458, looked up, variant T284L D301N K303G S375R)
UDP-glycosyltransferase 76G1: B1 UDP-glycosyltransferase 76G1 with T284L, M295I, D301N, K303G, E342Q, I366V, S375R, R409N
B19: UGT76G1var69: UGT76G1 variant, mutations S274G_I295T_I335V_L379A (protein, UniProt Q6VAB4 1-458, looked up, variant S274G I295T I335V L379A)
UDP-glycosyltransferase 76G1: B1 UDP-glycosyltransferase 76G1 with S274G, M295T, I335V, E342Q, I366V, L379A, R409N
B20: UGT76G1var74: UGT76G1 variant, mutations I295T_I373L_S375R_Y397Q_Q432E (protein, UniProt Q6VAB4 1-458, looked up, variant I295T I373L S375R Y397Q Q432E)
UDP-glycosyltransferase 76G1: B1 UDP-glycosyltransferase 76G1 with M295T, E342Q, I366V, I373L, S375R, Y397Q, R409N, Q432E
B21: UGT76G1var63: UGT76G1 variant, mutations F314S_R334H_Q342K_L379G (protein, UniProt Q6VAB4 1-458, looked up, variant F314S R334H Q342K L379G)
UDP-glycosyltransferase 76G1: B1 UDP-glycosyltransferase 76G1 with M295I, F314S, R334H, E342K, I366V, L379G, R409N
B22: UGT76G1var71: UGT76G1 variant, mutations I295M_V300A_K393G_Q432E (protein, UniProt Q6VAB4 1-458, looked up, variant I295M V300A K393G Q432E)
UDP-glycosyltransferase 76G1: B1 UDP-glycosyltransferase 76G1 with V300A, E342Q, I366V, K393G, R409N, Q432E
B23: UGT76G1var64: UGT76G1 variant, mutations F22L_A239I_R334H_I407V (protein, UniProt Q6VAB4 1-458, looked up, variant F22L A239I R334H I407V)
UDP-glycosyltransferase 76G1: B1 UDP-glycosyltransferase 76G1 with F22L, A239I, M295I, R334H, E342Q, I366V, I407V, R409N
B24: UGT76G1var3: UGT76G1 variant, mutations I295T_S357C_V366I (protein, UniProt Q6VAB4 1-458, looked up, variant I295T S357C V366I)
UDP-glycosyltransferase 76G1: B1 UDP-glycosyltransferase 76G1 with M295T, E342Q, S357C, R409N

Assay: Directed evolution of UGT76G1, conversion of Rebaudioside D to Rebaudioside M (round 1)
Assay type: biochemical
Settings: 0.5 mM Rebaudioside D, 2.5 mM UDP-Glucose, 100 μL fresh lysate, 30° C., pH 7.2
Excerpt: Starting from the amino acid sequence of UGT76G1, as is described in Genbank (AAR06912.1), different mutations at various amino acid positions were identified that could alter the activity of the enzyme for the transformation of Rebaudioside D (Reb D) to Rebaudioside M (Reb M). This list of mutations, designed by DNA2.0 ProteinGPS™ strategy, was subsequently used to synthesize 96 variant genes that contained 3, 4 or 5 of these mutations that were codon-optimized for expression in E. coli. The genes were subcloned in the pET30a+ plasmid and used for transformation of E. coli BL21 (DE3) chemically competent cells. The obtained cells were grown in Petri-dishes on solid LB medium in the presence of Kanamycin. Suitable colonies were selected and allowed to grow in liquid LB medium in tubes. Glycerol was added to the suspension as cryoprotectant and 400 μL aliquots were stored at −20° C. and at −80° C.
These storage aliquots of E. coli BL21(DE3) containing the pET30a+_UGT76G1var plasmids were thawed and added to LBGKP medium (20 g/L Luria Broth Lennox; 50 mM PIPES buffer pH 7.00; 50 mM Phosphate buffer pH 7.00; 2.5 g/L glucose and 50 mg/L of Kanamycine). This culture was allowed to shake in a 96 microtiter plate at 135 rpm at 30° C. for 8 h.
3.95 mL of production medium containing 60 g/L of Overnight Express™ Instant TB medium (Novagen®), 10 g/L of glycerol and 50 mg/L of Kanamycin was inoculated with 50 μL of above described culture. In a 48 deepwell plate the resulting culture was allowed to stir at 20° C. The cultures gave significant growth and a good OD (600 nm; 1 cm) was obtained. After 44 h, the cells were harvested by centrifugation and frozen.
Lysis was performed by addition of Bugbuster® Master mix (Novagen®) to the thawed cells and the lysate was recovered by centrifugation. Activity tests were performed with 100 μL of fresh lysate that was added to a solution of Rebaudioside D (final concentration 0.5 mM), MgCl2 (final concentration 3 mM) and UDP-Glucose (final concentration 2.5 mM) in 50 mM phosphate buffer pH 7.2.
The reaction was allowed to run at 30° C. and samples were taken after 2, 4, 7 and 24 h. to determine conversion and initial rate by HPLC (CAD detection) using the analytical method that was described above for the transformation of Rebaudioside D to Rebaudioside M. The results are depicted in the following table.

Row | Molecule | Conversion Reb D to Reb M after 24 h (%) | initial rate (Reb M area/min)
1 | B1 | 1.0% | 2.2E+05 Reb M area/min
2 | B2 | 6.4% | 2.0E+06 Reb M area/min
3 | B3 | 2.6% | 7.2E+05 Reb M area/min
4 | B4 | 0.8% | −1.3E+05 Reb M area/min
5 | B5 | 24.0% | 8.4E+06 Reb M area/min
6 | B6 | 14.7% | 8.6E+06 Reb M area/min
7 | B7 | −2.1% | −5.6E+05 Reb M area/min
8 | B8 | 0.4% | 4.1E+04 Reb M area/min
9 | B9 | 0.8% | 1.5E+05 Reb M area/min
10 | B10 | 33.0% | 2.7E+07 Reb M area/min
11 | B11 | 0.1% | 3.4E+04 Reb M area/min
12 | B12 | 0.8% | 3.7E+05 Reb M area/min
13 | B13 | 7.5% | 2.2E+06 Reb M area/min
14 | B14 | 0.5% | 9.5E+04 Reb M area/min
15 | B15 | 1.2% | 3.3E+05 Reb M area/min
16 | B16 | −1.4% | −1.1E+05 Reb M area/min
17 | B17 | 0.8% | 8.7E+05 Reb M area/min
18 | B18 | 19.2% | 9.1E+06 Reb M area/min
19 | B19 | 24.7% | 8.3E+06 Reb M area/min
20 | B20 | 0.6% | 9.6E+04 Reb M area/min
21 | B21 | 3.4% | 1.2E+06 Reb M area/min
22 | B22 | 42.9% | 2.1E+07 Reb M area/min
23 | B23 | 0.3% | 3.1E+04 Reb M area/min
24 | B24 | 9.6% | 1.6E+06 Reb M area/min
